Experimental findings from patent US20240270874A1 are described below.

Holding throughout (assay): cell-based or functional assay
Test [1] has as its target human KLB & human FGFR3c on L6 cells (human) (UniProt Q86Z14).
Test [2] concerns the target human KLB & human FGFR4 on L6 cells (human) (UniProt Q86Z14).
In test [3] the target is human FGFR1c on cells (human) (UniProt P11362).
Test [4] deals with human KLB&FGFR1c complex on cells (human) (UniProt Q86Z14).
human KLB&FGFR1c complex on cells (human), sequence (Q86Z14 whole entry, chain 1 of 2): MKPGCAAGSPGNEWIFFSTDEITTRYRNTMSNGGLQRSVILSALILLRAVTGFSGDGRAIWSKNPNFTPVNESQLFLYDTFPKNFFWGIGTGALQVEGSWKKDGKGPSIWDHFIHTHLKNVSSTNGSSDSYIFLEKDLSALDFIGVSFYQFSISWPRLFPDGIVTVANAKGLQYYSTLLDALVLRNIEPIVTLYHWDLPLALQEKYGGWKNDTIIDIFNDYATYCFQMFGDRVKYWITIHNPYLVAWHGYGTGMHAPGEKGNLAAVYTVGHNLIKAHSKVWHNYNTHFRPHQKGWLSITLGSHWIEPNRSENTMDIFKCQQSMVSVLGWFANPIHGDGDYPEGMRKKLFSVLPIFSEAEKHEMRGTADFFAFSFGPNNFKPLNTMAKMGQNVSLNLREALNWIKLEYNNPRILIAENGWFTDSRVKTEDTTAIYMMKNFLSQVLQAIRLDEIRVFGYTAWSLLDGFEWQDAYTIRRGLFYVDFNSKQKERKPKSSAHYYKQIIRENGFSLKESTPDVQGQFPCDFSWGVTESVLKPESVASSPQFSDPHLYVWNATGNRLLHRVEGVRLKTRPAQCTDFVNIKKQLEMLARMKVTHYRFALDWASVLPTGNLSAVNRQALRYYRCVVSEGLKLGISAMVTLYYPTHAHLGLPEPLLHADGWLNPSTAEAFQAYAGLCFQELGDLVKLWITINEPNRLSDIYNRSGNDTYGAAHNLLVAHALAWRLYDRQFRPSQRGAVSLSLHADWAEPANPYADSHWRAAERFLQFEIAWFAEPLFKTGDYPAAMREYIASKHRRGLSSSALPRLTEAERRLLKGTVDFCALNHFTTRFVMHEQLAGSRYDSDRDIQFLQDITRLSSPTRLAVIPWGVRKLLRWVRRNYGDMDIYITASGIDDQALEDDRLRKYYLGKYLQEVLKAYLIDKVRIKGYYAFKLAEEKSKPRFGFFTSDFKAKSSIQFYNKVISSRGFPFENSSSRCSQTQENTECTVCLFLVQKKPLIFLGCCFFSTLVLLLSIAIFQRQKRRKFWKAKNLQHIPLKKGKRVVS
human KLB&FGFR1c complex on cells (human), sequence (P11362 22-822, chain 2 of 2, further chain): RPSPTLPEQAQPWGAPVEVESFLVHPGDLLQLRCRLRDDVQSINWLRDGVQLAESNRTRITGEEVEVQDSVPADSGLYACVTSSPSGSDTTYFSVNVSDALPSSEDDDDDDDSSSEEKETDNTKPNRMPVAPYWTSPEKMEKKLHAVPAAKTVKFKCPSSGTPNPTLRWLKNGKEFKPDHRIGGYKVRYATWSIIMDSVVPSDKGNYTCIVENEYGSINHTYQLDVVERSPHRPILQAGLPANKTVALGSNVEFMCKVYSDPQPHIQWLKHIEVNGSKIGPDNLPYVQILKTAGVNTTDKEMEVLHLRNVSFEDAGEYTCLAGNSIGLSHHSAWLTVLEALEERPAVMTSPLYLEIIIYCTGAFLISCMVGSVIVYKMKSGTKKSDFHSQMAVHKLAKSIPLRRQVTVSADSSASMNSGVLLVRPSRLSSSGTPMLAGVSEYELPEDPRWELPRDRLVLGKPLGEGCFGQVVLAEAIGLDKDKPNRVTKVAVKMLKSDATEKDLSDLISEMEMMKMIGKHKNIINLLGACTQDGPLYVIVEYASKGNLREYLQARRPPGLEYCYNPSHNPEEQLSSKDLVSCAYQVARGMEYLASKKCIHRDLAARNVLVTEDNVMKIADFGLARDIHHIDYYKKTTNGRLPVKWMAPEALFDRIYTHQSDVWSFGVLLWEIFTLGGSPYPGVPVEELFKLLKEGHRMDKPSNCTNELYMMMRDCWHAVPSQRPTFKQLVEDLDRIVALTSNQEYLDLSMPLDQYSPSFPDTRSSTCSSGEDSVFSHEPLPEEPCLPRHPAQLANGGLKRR

human FGFR1c on cells (human), sequence (P11362 22-822): as the sequence (P11362 22-822, chain 2 of 2, further chain) above
human KLB & human FGFR3c on L6 cells (human), sequence (Q86Z14 whole entry, chain 1 of 2): as the sequence (Q86Z14 whole entry, chain 1 of 2) above
human KLB & human FGFR3c on L6 cells (human), sequence (P22607 23-806, chain 2 of 2, further chain): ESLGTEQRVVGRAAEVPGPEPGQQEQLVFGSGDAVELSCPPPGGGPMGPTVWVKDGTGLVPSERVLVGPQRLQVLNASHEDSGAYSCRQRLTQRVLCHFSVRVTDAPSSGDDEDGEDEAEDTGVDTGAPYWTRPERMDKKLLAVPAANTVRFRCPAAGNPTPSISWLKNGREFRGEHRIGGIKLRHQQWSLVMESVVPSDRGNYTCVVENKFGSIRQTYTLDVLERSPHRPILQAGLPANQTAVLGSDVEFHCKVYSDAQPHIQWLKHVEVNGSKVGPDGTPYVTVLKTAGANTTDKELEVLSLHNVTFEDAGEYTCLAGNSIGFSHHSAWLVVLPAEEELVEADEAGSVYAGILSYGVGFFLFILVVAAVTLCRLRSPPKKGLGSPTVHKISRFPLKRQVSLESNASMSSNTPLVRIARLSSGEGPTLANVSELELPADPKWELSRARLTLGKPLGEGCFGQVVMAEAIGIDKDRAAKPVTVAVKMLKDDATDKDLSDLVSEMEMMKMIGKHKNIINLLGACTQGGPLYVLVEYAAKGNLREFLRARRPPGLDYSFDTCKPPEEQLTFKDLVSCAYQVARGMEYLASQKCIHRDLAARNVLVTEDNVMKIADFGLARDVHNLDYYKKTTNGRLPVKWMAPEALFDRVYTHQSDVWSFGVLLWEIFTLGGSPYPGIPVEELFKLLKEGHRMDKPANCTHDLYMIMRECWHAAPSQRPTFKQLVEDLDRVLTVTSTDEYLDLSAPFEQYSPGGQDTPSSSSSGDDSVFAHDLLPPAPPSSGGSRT
human KLB & human FGFR4 on L6 cells (human), sequence (Q86Z14 whole entry, chain 1 of 2): as the sequence (Q86Z14 whole entry, chain 1 of 2) above
human KLB & human FGFR4 on L6 cells (human), sequence (P22455 22-802, chain 2 of 2, further chain): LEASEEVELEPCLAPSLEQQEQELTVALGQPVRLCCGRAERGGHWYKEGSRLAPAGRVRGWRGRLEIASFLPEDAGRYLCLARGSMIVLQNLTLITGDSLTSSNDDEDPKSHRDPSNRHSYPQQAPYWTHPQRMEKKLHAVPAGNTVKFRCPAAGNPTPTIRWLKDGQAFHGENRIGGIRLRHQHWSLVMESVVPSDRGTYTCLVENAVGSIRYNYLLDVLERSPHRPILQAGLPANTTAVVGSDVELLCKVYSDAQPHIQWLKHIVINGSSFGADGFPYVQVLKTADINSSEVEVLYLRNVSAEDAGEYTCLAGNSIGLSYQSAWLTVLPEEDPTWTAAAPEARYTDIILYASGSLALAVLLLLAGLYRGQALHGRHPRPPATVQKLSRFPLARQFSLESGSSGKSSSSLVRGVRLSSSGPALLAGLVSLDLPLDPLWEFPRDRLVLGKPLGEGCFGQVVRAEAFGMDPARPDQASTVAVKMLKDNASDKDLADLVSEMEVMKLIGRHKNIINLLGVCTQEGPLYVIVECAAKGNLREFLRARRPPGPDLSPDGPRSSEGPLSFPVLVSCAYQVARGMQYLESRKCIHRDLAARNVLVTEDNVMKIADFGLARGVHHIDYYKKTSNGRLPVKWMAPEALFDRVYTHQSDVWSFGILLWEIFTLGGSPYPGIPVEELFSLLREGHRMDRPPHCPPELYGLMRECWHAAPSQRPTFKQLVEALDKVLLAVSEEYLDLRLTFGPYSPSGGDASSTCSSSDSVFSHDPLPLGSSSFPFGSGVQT

For the substance AKR001 (ligand), in test [1], the Activation fold, pERK/total ERK in L6-hKLB&hFGFR3c cells is 10.2 fold. In test [2], this substance showed an Activation fold, pERK/total ERK in L6-hKLB&hFGFR4 cells of 2.11 fold.
As to “FGF2 (Sino Biological, 10014-HNAE) (from UniProt P09038 143-288) (ligand)”, in test [3], the Activation fold, SRE-Luc2P reporter in HEK293-hFGFR1c cells stood at 11.6 fold.
In test [4], MK3655 (antibody) had an Activation fold, GAL4-Elk1 luciferase reporter in CHOK1-hKLB&hFGFR1c cells of 5.62 fold; an Activation fold, SRE-Luc2P reporter in HEK293T-hKLB&hFGFR1c cells of 1.65 fold; an EC50 (nM), GAL4-Elk1 luciferase reporter in CHOK1-hKLB&hFGFR1c cells of 0.64 nM; an EC50 (nM), SRE-Luc2P reporter in HEK293T-hKLB&hFGFR1c cells of 5.06 nM.
